Assay results taken from the supplement of paper PMC6755084.

B1: minF1; the commonest letter at each place (parent)
chain: GAGACCGCAACTGAAAAGTTGTTATCAGAAATGGATGGGTTGAATTTCTGCACGTAGAAGCAAAAGGC

Variants of: B1
Experiment: fraction ligated after 30 min (ligated reads / total reads); higher = more ligase activity
Conditions: with F1*subA RNA substrate (template-directed ligation), 42 °C
Outline: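 Oligo-pool templates of minimized ligase ribozyme variants were PCR-amplified, T7-transcribed and gel-purified. Ligated and unligated RNAs were gel-separated, reverse transcribed with barcoded primers, and MiSeq-sequenced; core bases were filtered at quality ≥30. Fraction ligated per variant was ligated reads over total reads.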

In order of rising fraction ligated:
1. GAGACCGCAACTGAAAAGTTGTTATCAGAAATGGATGGGTTATGTTTCTGCACGTAGAAGCAAAAGGC  0.000353
2. GAGACCGCAACTGAAAAGTTGTTATCAGAAATGGATGGGTTCTCTTTCTGCACGTAGAAGCAAAAGGC  0.000795
3. GAGACCGCAACTGAAAAGTTGTTATCAGAAATGGATGGGTTTCATTTCTGCACGTAGAAGCAAAAGGC  0.000975
4. GAGACCGCAACTGAAAAGTTGTTATCAGAAATGGATGGGTTACCTTTCTGCACGTAGAAGCAAAAGGC  0.00102
5. GAGACCGCAACTGAAAAGTTGTTATCAGAAATGGATGGGTTTCCTTTCTGCACGTAGAAGCAAAAGGC  0.00131
6. GAGACCGCAACTGAAAAGTTGTTATCAGAAATGGATGGGTTATTTTTCTGCACGTAGAAGCAAAAGGC  0.00133
7. GAGACCGCAACTGAAAAGTTGTTATCAGAAATGGATGGGTTTGCTTTCTGCACGTAGAAGCAAAAGGC  0.00145
8. GAGACCGCAACTGAAAAGTTGTTATCAGAAATGGATTGGTTTAATTTCTGCACGTAGAAGCAAAAGGC  0.00146
9. GAGACCGCAACTGAAAAGTTGTTATCAGAAATGGATGGGTTTCGTTTCTGCACGTAGAAGCAAAAGGC  0.00164
10. GAGACCGCAACTGAAAAGTTGTTATCAGAAATGGATGGGTTACGTTTCTGCACGTAGAAGCAAAAGGC  0.00203
11. GAGACCGCAACTGAAAAGTTGTTATCAGAAATGGATGGGTTACTTTTCTGCACGTAGAAGCAAAAGGC  0.00211
12. GAGACCGCAACTGAAAAGTTGTTATCAGAAATGGATGGGTTCTGTTTCTGCACGTAGAAGCAAAAGGC  0.0022
13. GAGACCGCAACTGAAAAGTTGTTATCAGAAATGGATGGGTTAGCTTTCTGCACGTAGAAGCAAAAGGC  0.00251
14. GAGACCGCAACTGAAAAGTTGTTATCAGAAATGGATGGGTTTGTTTTCTGCACGTAGAAGCAAAAGGC  0.00254
15. GAGACCGCAACTGAAAAGTTGTTATCAGAAATGGATGGGTTTGGTTTCTGCACGTAGAAGCAAAAGGC  0.00264
16. GAGACCGCAACTGAAAAGTTGTTATCAGAAATGGATCGGTTAAATTTCTGCACGTAGAAGCAAAAGGC  0.00281
17. GAGACCGCAACTGAAAAGTTGTTATCAGAAATGGATGGGTTCTTTTTCTGCACGTAGAAGCAAAAGGC  0.00299
18. GAGACCGCAACTGAAAAGTTGTTATCAGAAATGGATGGGTTCTATTTCTGCACGTAGAAGCAAAAGGC  0.00312
19. GAGACCGCAACTGAAAAGTTGTTATCAGAAATGGATGGGTTATCTTTCTGCACGTAGAAGCAAAAGGC  0.00312
20. GAGACCGCAACTGAAAAGTTGTTATCAGAAATGGATGGGTTTTATTTCTGCACGTAGAAGCAAAAGGC  0.00326
21. GAGACCGCAACTGAAAAGTTGTTATCAGAAATGGATCGGTTCAATTTCTGCACGTAGAAGCAAAAGGC  0.00331
22. GAGACCGCAACTGAAAAGTTGTTATCAGAAATGGATGGGTTAGGTTTCTGCACGTAGAAGCAAAAGGC  0.00352
23. GAGACCGCAACTGAAAAGTTGTTATCAGAAATGGATGGGTTAGTTTTCTGCACGTAGAAGCAAAAGGC  0.00363
24. GAGACCGCAACTGAAAAGTTGTTATCAGAAATGGATGGGTTTCTTTTCTGCACGTAGAAGCAAAAGGC  0.0038
25. GAGACCGCAACTGAAAAGTTGTTATCAGAAATGGATGGGTTCCATTTCTGCACGTAGAAGCAAAAGGC  0.00394
26. GAGACCGCAACTGAAAAGTTGTTATCAGAAATGGATCGGTTGAATTTCTGCACGTAGAAGCAAAAGGC  0.00417
27. GAGACCGCAACTGAAAAGTTGTTATCAGAAATGGATAGGTTGAGTTTCTGCACGTAGAAGCAAAAGGC  0.00429
28. GAGACCGCAACTGAAAAGTTGTTATCAGAAATGGATTGGTTCAATTTCTGCACGTAGAAGCAAAAGGC  0.00492
29. GAGACCGCAACTGAAAAGTTGTTATCAGAAATGGATAGGTTGATTTTCTGCACGTAGAAGCAAAAGGC  0.00574
30. GAGACCGCAACTGAAAAGTTGTTATCAGAAATGGATGGGTTTACTTTCTGCACGTAGAAGCAAAAGGC  0.00596
31. GAGACCGCAACTGAAAAGTTGTTATCAGAAATGGATTGGTTAAATTTCTGCACGTAGAAGCAAAAGGC  0.00778
32. GAGACCGCAACTGAAAAGTTGTTATCAGAAATGGATGGGTTTAGTTTCTGCACGTAGAAGCAAAAGGC  0.0143
33. GAGACCGCAACTGAAAAGTTGTTATCAGAAATGGATTGGTTGAATTTCTGCACGTAGAAGCAAAAGGC  0.0174
34. GAGACCGCAACTGAAAAGTTGTTATCAGAAATGGATGGGTTAACTTTCTGCACGTAGAAGCAAAAGGC  0.024
35. GAGACCGCAACTGAAAAGTTGTTATCAGAAATGGATGGGTTTATTTTCTGCACGTAGAAGCAAAAGGC  0.0246
36. GAGACCGCAACTGAAAAGTTGTTATCAGAAATGGATGGGTTAAGTTTCTGCACGTAGAAGCAAAAGGC  0.0717
37. GAGACCGCAACTGAAAAGTTGTTATCAGAAATGGATGGGTTAATTTTCTGCACGTAGAAGCAAAAGGC  0.0746
38. GAGACCGCAACTGAAAAGTTGTTATCAGAAATGGATGGGTTCGATTTCTGCACGTAGAAGCAAAAGGC  0.0762
39. GAGACCGCAACTGAAAAGTTGTTATCAGAAATGGATGGGTTTGATTTCTGCACGTAGAAGCAAAAGGC  0.115
